The text below walks through data of patent US8173771B2, “Humanin receptor or humanin-like polypeptide receptor” (Keio Univeristy, priority 2005, dated 2012).

For experiment [1], the system named is primary cortical neurons (PCNs). The experiment in a line: Aβ neurotoxicity in primary cortical neurons, WST-8 / Calcein / LDH. The experiment is classed as cell-based, mouse. Put shortly: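 Primary cortical neurons from E14 ICR mice, in DMEM with N2 supplement, received 25 μM Aβ(1-42) on day 4 in vitro together with HN or cytokines, with or without soluble receptors or neutralizing antibodies. Viability was read by WST-8 or Calcein at 72 h, and mortality by LDH or Trypan blue.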

The target of experiment [2] is T1, PCN cells (Mus musculus, UniProt O70394+O88507).
T1 construct: endogenous in cells; host or cells: mouse primary cortical neurons (PCN), E14 ICR mice
T1 sequence (O70394 25-623): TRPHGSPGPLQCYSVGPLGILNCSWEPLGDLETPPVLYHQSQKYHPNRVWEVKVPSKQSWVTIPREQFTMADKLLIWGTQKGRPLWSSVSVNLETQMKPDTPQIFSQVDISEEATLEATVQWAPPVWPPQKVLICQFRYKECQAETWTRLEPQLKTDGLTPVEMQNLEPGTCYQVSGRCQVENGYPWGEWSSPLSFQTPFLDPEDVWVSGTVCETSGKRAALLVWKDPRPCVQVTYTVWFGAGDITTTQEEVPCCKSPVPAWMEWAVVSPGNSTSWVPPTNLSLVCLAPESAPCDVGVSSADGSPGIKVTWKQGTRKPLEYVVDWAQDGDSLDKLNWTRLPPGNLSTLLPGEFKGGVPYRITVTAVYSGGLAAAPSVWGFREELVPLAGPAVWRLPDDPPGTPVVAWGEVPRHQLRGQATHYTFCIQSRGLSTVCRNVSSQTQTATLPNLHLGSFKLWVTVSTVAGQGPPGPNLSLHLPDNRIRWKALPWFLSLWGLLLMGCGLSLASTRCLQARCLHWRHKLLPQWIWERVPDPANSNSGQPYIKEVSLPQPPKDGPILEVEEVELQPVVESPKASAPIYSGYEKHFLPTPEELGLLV
T1 sequence (O88507 23-342 limits assumed): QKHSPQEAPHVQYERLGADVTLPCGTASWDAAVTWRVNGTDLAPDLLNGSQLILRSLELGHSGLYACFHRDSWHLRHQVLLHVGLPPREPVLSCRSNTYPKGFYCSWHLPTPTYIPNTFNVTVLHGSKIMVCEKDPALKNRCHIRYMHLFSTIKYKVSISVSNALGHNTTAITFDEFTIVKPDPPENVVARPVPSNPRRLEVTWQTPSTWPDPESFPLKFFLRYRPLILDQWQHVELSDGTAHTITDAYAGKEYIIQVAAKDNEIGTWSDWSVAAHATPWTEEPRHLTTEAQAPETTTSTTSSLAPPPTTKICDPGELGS
T1 sequence (Q00560 23-917 partner): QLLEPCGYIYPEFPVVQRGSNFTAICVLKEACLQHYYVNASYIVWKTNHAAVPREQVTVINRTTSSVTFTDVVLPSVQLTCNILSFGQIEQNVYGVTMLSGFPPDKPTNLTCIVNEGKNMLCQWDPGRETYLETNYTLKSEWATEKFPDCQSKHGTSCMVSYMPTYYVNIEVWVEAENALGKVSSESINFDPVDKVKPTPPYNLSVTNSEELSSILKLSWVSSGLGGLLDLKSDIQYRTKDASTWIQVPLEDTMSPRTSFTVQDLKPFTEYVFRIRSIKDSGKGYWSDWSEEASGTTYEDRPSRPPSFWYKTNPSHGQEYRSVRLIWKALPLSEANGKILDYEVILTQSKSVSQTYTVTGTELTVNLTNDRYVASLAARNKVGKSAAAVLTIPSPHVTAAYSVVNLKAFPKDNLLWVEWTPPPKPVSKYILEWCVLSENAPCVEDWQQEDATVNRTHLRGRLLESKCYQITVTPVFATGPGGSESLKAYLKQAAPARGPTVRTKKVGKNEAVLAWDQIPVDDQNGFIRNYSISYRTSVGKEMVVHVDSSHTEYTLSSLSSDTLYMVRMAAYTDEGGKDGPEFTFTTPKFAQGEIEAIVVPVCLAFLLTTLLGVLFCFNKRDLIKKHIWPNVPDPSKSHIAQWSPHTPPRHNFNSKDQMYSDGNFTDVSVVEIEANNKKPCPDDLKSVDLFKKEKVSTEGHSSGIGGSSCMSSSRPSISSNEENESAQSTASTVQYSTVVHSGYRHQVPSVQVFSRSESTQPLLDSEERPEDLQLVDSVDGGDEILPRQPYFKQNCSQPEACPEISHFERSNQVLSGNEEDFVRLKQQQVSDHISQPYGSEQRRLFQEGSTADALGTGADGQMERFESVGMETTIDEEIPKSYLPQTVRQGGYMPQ
Put plainly: Immunofluorescence-based binding assay (2) on PCN, competition with unlabeled cytokines. Conditions: similar range as IL-27; 10 nM biotin-HNG. On the procedure:
After 6 hrs incubation, they were fixed with 4% paraformaldehyde in PBS for 30 min. After washing with PBS, cells were stained with FITC-conjugated avidin (Molecularprobe, Eugene, Oreg., USA). Immunofluorescence intensity was measured (excitation=485 nm, emission=535 nm) with a spectrofluorometer (Wallac1420 ARVOsx Multi Label Counter). Immunohistochemical analysis was done with a laser-scanning, confocal microscope LSM (Carl Zeiss, Germany).

B1: IL-6: interleukin-6, recombinant cytokine (protein, UniProt P20607 25-211, looked up)
Interleukin-6: FPTSQVRRGDFTEDTTHNRPVYTTSQVGGLITYVLREILEMRKELCNGNSDCMNSDDALSENNLKLPEIQRNDGCFQTGYNQEICLLKICSGLLEFRFYLEFVKNNLQDNKKDKARVIQSNTETLVHIFKQEIKDSYKIVLPTPTSNALLMEKLESQKEWLRTKTIQLILKALEEFLKVTMRSTRQT
As for B1, the “mimicry of HN in neuroprotection against neuronal cell death by Aβ” value in experiment [1] (cytokine 100 ng/ml with its soluble receptor (sIL-6R or soluble CNTF receptor) 100 ng/ml) was “completely mimicked HN”. In addition, the “inhibition of neurotoxicity by Aβ” value in experiment [1] (cytokine alone, physiological levels (up to 100 ng/ml), 25 μM Aβ) is recorded as “did not inhibit”. Also, the “inhibition of the binding of HN to PCN” value in experiment [2] is given as “did not show such effect”.
